Experiment in all cases: cell-based or functional assay
One assay concerns the target human glucagon receptor (human, UniProt P47871 26-477).
The target in another assay is T1, human GIP receptor (human, UniProt P48546 22-466).
T1 sequence (looked up): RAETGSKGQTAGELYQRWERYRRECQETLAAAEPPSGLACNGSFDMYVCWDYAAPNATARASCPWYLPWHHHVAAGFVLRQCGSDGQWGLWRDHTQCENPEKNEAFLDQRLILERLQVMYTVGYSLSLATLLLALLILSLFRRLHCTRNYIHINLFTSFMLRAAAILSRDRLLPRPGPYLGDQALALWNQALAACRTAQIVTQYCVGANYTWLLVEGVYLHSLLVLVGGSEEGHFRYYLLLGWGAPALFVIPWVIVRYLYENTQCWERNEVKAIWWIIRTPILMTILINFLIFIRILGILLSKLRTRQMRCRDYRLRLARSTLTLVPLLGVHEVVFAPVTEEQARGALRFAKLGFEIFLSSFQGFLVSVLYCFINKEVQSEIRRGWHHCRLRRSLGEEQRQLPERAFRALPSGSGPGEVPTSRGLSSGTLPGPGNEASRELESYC

The next assay deals with human GLP-1 receptor (human, UniProt P43220 24-463).

Numbered stars: 1 amine (or outer) side, 2 acyl side, 3 side chain; on linkers, the order of the positions; unused ones are H or OH. Square brackets hold non-standard residues; d marks the D form. Side chains are listed from the residue outwards. Ends that are not written are not given here. * marks the point of attachment. γGlu = O=C(O)[C@H](CCC(=O)[*:2])N[*:1]; Palmitoyl = CCCCCCCCCCCCCCCC(=O)*; Aib = CC(C)(N)C(=O)O

human glucagon receptor, sequence (P47871 26-477): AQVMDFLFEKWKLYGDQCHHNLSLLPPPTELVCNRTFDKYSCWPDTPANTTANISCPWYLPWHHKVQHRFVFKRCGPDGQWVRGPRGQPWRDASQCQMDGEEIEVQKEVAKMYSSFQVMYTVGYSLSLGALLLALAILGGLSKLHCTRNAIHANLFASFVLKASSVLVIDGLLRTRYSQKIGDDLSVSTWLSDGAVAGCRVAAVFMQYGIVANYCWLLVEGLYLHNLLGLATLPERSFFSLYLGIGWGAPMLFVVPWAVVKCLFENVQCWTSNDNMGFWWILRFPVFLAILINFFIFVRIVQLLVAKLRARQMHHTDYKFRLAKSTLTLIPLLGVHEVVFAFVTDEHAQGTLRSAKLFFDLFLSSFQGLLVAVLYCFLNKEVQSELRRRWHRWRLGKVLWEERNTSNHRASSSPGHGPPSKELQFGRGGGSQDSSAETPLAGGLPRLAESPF

B1: SEQ ID NO: 8 (peptide)
peptide: H[Aib]QGTFTSDLSKLK([γGlu-γGlu-Palmitoyl])EEQRQ[Aib]EFIEWLKAGGHPS[Aib]KPPPK-NH2
modifications: N-terminus assumed
SMILES: CCCCCCCCCCCCCCCC(=O)N[C@@H](CCC(=O)N[C@@H](CCC(=O)NCCCC[C@H](NC(=O)[C@H](CC(C)C)NC(=O)[C@H](CCCCN)NC(=O)[C@H](CO)NC(=O)[C@H](CC(C)C)NC(=O)[C@H](CC(=O)O)NC(=O)[C@H](CO)NC(=O)[C@@H](NC(=O)[C@H](Cc1ccccc1)NC(=O)[C@@H](NC(=O)CNC(=O)[C@H](CCC(N)=O)NC(=O)C(C)(C)NC(=O)[C@@H](N)Cc1c[nH]cn1)[C@@H](C)O)[C@@H](C)O)C(=O)N[C@@H](CCC(=O)O)C(=O)N[C@@H](CCC(=O)O)C(=O)N[C@@H](CCC(N)=O)C(=O)N[C@@H](CCCNC(=N)N)C(=O)N[C@@H](CCC(N)=O)C(=O)NC(C)(C)C(=O)N[C@@H](CCC(=O)O)C(=O)N[C@@H](Cc1ccccc1)C(=O)N[C@H](C(=O)N[C@@H](CCC(=O)O)C(=O)N[C@@H](Cc1c[nH]c2ccccc12)C(=O)N[C@@H](CC(C)C)C(=O)N[C@@H](CCCCN)C(=O)N[C@@H](C)C(=O)NCC(=O)NCC(=O)N[C@@H](Cc1c[nH]cn1)C(=O)N1CCC[C@H]1C(=O)N[C@@H](CO)C(=O)NC(C)(C)C(=O)N[C@@H](CCCCN)C(=O)N1CCC[C@H]1C(=O)N1CCC[C@H]1C(=O)N1CCC[C@H]1C(=O)N[C@@H](CCCCN)C(N)=O)[C@@H](C)CC)C(=O)O)C(=O)O
Turning to B1, in the assay with human glucagon receptor, the “EC50 hGlucagon R (cAMP formation)” value is 32.6 pM. Also, the “EC50 hGIP R (cAMP formation)” value with human GIP receptor was 5.6 pM. Moreover, the “EC50 hGLP-1R (cAMP formation)” value with human GLP-1 receptor is 2.2 pM.

B2: SEQ ID NO: 10 (peptide)
peptide: H[Aib]QGTFTSDLSKLK([γGlu-γGlu-Palmitoyl])EEQRQ[Aib]EFIEWLKA[dA]GPPS[Aib]KPPPK-NH2
modifications: N-terminus assumed
SMILES: CCCCCCCCCCCCCCCC(=O)N[C@@H](CCC(=O)N[C@@H](CCC(=O)NCCCC[C@H](NC(=O)[C@H](CC(C)C)NC(=O)[C@H](CCCCN)NC(=O)[C@H](CO)NC(=O)[C@H](CC(C)C)NC(=O)[C@H](CC(=O)O)NC(=O)[C@H](CO)NC(=O)[C@@H](NC(=O)[C@H](Cc1ccccc1)NC(=O)[C@@H](NC(=O)CNC(=O)[C@H](CCC(N)=O)NC(=O)C(C)(C)NC(=O)[C@@H](N)Cc1c[nH]cn1)[C@@H](C)O)[C@@H](C)O)C(=O)N[C@@H](CCC(=O)O)C(=O)N[C@@H](CCC(=O)O)C(=O)N[C@@H](CCC(N)=O)C(=O)N[C@@H](CCCNC(=N)N)C(=O)N[C@@H](CCC(N)=O)C(=O)NC(C)(C)C(=O)N[C@@H](CCC(=O)O)C(=O)N[C@@H](Cc1ccccc1)C(=O)N[C@H](C(=O)N[C@@H](CCC(=O)O)C(=O)N[C@@H](Cc1c[nH]c2ccccc12)C(=O)N[C@@H](CC(C)C)C(=O)N[C@@H](CCCCN)C(=O)N[C@@H](C)C(=O)N[C@H](C)C(=O)NCC(=O)N1CCC[C@H]1C(=O)N1CCC[C@H]1C(=O)N[C@@H](CO)C(=O)NC(C)(C)C(=O)N[C@@H](CCCCN)C(=O)N1CCC[C@H]1C(=O)N1CCC[C@H]1C(=O)N1CCC[C@H]1C(=O)N[C@@H](CCCCN)C(N)=O)[C@@H](C)CC)C(=O)O)C(=O)O
Turning to B2, the “EC50 hGlucagon R (cAMP formation)” value in the assay with human glucagon receptor stood at 26.1 pM. In addition, the “EC50 hGIP R (cAMP formation)” value with human GIP receptor was found to be 5.4 pM. Besides, the “EC50 hGLP-1R (cAMP formation)” value with human GLP-1 receptor turned out to be 2.4 pM.

B3: SEQ ID NO: 12 (peptide)
peptide: H[Aib]QGTFTSDLSKLK([γGlu-γGlu-Palmitoyl])EKQRQ[Aib]EFIEWLKAGGHPS[Aib]KPPPK-NH2
modifications: N-terminus assumed
SMILES: CCCCCCCCCCCCCCCC(=O)N[C@@H](CCC(=O)N[C@@H](CCC(=O)NCCCC[C@H](NC(=O)[C@H](CC(C)C)NC(=O)[C@H](CCCCN)NC(=O)[C@H](CO)NC(=O)[C@H](CC(C)C)NC(=O)[C@H](CC(=O)O)NC(=O)[C@H](CO)NC(=O)[C@@H](NC(=O)[C@H](Cc1ccccc1)NC(=O)[C@@H](NC(=O)CNC(=O)[C@H](CCC(N)=O)NC(=O)C(C)(C)NC(=O)[C@@H](N)Cc1c[nH]cn1)[C@@H](C)O)[C@@H](C)O)C(=O)N[C@@H](CCC(=O)O)C(=O)N[C@@H](CCCCN)C(=O)N[C@@H](CCC(N)=O)C(=O)N[C@@H](CCCNC(=N)N)C(=O)N[C@@H](CCC(N)=O)C(=O)NC(C)(C)C(=O)N[C@@H](CCC(=O)O)C(=O)N[C@@H](Cc1ccccc1)C(=O)N[C@H](C(=O)N[C@@H](CCC(=O)O)C(=O)N[C@@H](Cc1c[nH]c2ccccc12)C(=O)N[C@@H](CC(C)C)C(=O)N[C@@H](CCCCN)C(=O)N[C@@H](C)C(=O)NCC(=O)NCC(=O)N[C@@H](Cc1c[nH]cn1)C(=O)N1CCC[C@H]1C(=O)N[C@@H](CO)C(=O)NC(C)(C)C(=O)N[C@@H](CCCCN)C(=O)N1CCC[C@H]1C(=O)N1CCC[C@H]1C(=O)N1CCC[C@H]1C(=O)N[C@@H](CCCCN)C(N)=O)[C@@H](C)CC)C(=O)O)C(=O)O
Consider B3, for which the “EC50 hGlucagon R (cAMP formation)” value with human glucagon receptor was determined as 22 pM. Also, the “EC50 hGIP R (cAMP formation)” value in the assay with human GIP receptor came out at 15.8 pM. In the assay with human GLP-1 receptor, the “EC50 hGLP-1R (cAMP formation)” value came to 2.7 pM.

B4: SEQ ID NO: 9 (peptide)
peptide: H[Aib]QGTFTSDLSKLK([γGlu-γGlu-Palmitoyl])EEQRQ[Aib]EFIEWLKAGGPPS[Aib]KPPPK-NH2
modifications: N-terminus assumed
SMILES: CCCCCCCCCCCCCCCC(=O)N[C@@H](CCC(=O)N[C@@H](CCC(=O)NCCCC[C@H](NC(=O)[C@H](CC(C)C)NC(=O)[C@H](CCCCN)NC(=O)[C@H](CO)NC(=O)[C@H](CC(C)C)NC(=O)[C@H](CC(=O)O)NC(=O)[C@H](CO)NC(=O)[C@@H](NC(=O)[C@H](Cc1ccccc1)NC(=O)[C@@H](NC(=O)CNC(=O)[C@H](CCC(N)=O)NC(=O)C(C)(C)NC(=O)[C@@H](N)Cc1c[nH]cn1)[C@@H](C)O)[C@@H](C)O)C(=O)N[C@@H](CCC(=O)O)C(=O)N[C@@H](CCC(=O)O)C(=O)N[C@@H](CCC(N)=O)C(=O)N[C@@H](CCCNC(=N)N)C(=O)N[C@@H](CCC(N)=O)C(=O)NC(C)(C)C(=O)N[C@@H](CCC(=O)O)C(=O)N[C@@H](Cc1ccccc1)C(=O)N[C@H](C(=O)N[C@@H](CCC(=O)O)C(=O)N[C@@H](Cc1c[nH]c2ccccc12)C(=O)N[C@@H](CC(C)C)C(=O)N[C@@H](CCCCN)C(=O)N[C@@H](C)C(=O)NCC(=O)NCC(=O)N1CCC[C@H]1C(=O)N1CCC[C@H]1C(=O)N[C@@H](CO)C(=O)NC(C)(C)C(=O)N[C@@H](CCCCN)C(=O)N1CCC[C@H]1C(=O)N1CCC[C@H]1C(=O)N1CCC[C@H]1C(=O)N[C@@H](CCCCN)C(N)=O)[C@@H](C)CC)C(=O)O)C(=O)O
B4: in the assay with human glucagon receptor, the “EC50 hGlucagon R (cAMP formation)” value was 24.7 pM. In addition, the “EC50 hGIP R (cAMP formation)” value with human GIP receptor came to 5.6 pM. In the assay with human GLP-1 receptor, the “EC50 hGLP-1R (cAMP formation)” value was determined as 2.6 pM.

B5: SEQ ID NO: 11 (peptide)
peptide: H[Aib]QGTFTSDLSKLK([γGlu-γGlu-Palmitoyl])EEQRQ[Aib]EFIEWLKA[dA]GHPS[Aib]KPPPK-NH2
modifications: N-terminus assumed
SMILES: CCCCCCCCCCCCCCCC(=O)N[C@@H](CCC(=O)N[C@@H](CCC(=O)NCCCC[C@H](NC(=O)[C@H](CC(C)C)NC(=O)[C@H](CCCCN)NC(=O)[C@H](CO)NC(=O)[C@H](CC(C)C)NC(=O)[C@H](CC(=O)O)NC(=O)[C@H](CO)NC(=O)[C@@H](NC(=O)[C@H](Cc1ccccc1)NC(=O)[C@@H](NC(=O)CNC(=O)[C@H](CCC(N)=O)NC(=O)C(C)(C)NC(=O)[C@@H](N)Cc1c[nH]cn1)[C@@H](C)O)[C@@H](C)O)C(=O)N[C@@H](CCC(=O)O)C(=O)N[C@@H](CCC(=O)O)C(=O)N[C@@H](CCC(N)=O)C(=O)N[C@@H](CCCNC(=N)N)C(=O)N[C@@H](CCC(N)=O)C(=O)NC(C)(C)C(=O)N[C@@H](CCC(=O)O)C(=O)N[C@@H](Cc1ccccc1)C(=O)N[C@H](C(=O)N[C@@H](CCC(=O)O)C(=O)N[C@@H](Cc1c[nH]c2ccccc12)C(=O)N[C@@H](CC(C)C)C(=O)N[C@@H](CCCCN)C(=O)N[C@@H](C)C(=O)N[C@H](C)C(=O)NCC(=O)N[C@@H](Cc1c[nH]cn1)C(=O)N1CCC[C@H]1C(=O)N[C@@H](CO)C(=O)NC(C)(C)C(=O)N[C@@H](CCCCN)C(=O)N1CCC[C@H]1C(=O)N1CCC[C@H]1C(=O)N1CCC[C@H]1C(=O)N[C@@H](CCCCN)C(N)=O)[C@@H](C)CC)C(=O)O)C(=O)O
Turning to B5, the “EC50 hGlucagon R (cAMP formation)” value with human glucagon receptor was determined as 22.4 pM. Moreover, the “EC50 hGIP R (cAMP formation)” value in the assay with human GIP receptor was found to be 3.5 pM. For the same molecule, the “EC50 hGLP-1R (cAMP formation)” value with human GLP-1 receptor was determined as 2.3 pM.

The record behind these values is patent US20180155407A1 (Sanofi, published 2018).
